Source: article PMC10042815

Molecular target: thrombin (Sigma, Germany)

Substance: commercially available hirudin (MedChem Express) (natural protein)
- antithrombin activity by thrombin titration (bovine fibrinogen, fibrin clot within 1 min as endpoint, 37 °C, 50 mM Tris-HCl pH 7.4): 12000 ATU/mL

Substance: recombinant hirudin from Hirudo nipponia (candidate hirudin gene c16237_g1) (natural protein)
- antithrombin activity by thrombin titration (bovine fibrinogen, fibrin clot within 1 min as endpoint, 37 °C, 50 mM Tris-HCl pH 7.4): 14000 ATU/mL
